Source: US20080188000

How the values were obtained:
[1] = test system: ZFN 9666 (GR exon 3 four-finger ZFP-FokI) (synthetic); assay: cell_activity; details: paired with 9674; Ad5/F35 moi 100, CD8+ T-cells after dexamethasone selection; also Cel I cleavage in K562 (FIG. 3A)
[2] = test system: ZFN 9674 (GR exon 3 four-finger ZFP-FokI) (synthetic); assay: cell_activity; details: paired with 9666; Ad5/F35 moi 100, CD8+ T-cells after dexamethasone selection; also Cel I cleavage in K562 (FIG. 3A)

| Sequence | activity (% GR alleles mutated) [1] | activity (% GR alleles mutated) [2] |
| --- | --- | --- |
| CAACAGGACCAC (double strand) [GR exon 3 sense target (nt 1370-1381)] | 70 |  |
| GTTGAGGAGCTG (double strand) [GR exon 3 antisense target (nt 1353-1364)] |  | 70 |
